Assay results from patent publication US7422862B2, “Methods for identifying modulators of apoptosis” (The Burnham Institute, priority 2001, dated 2008).

Key:
[1] = target: T1, Bax (Homo sapiens, UniProt Q07812); experiment: Co-immunoprecipitation of GFP-Humanin fusion polypeptides with Bax in transfected cells; format: binding; set-up: expressed in transfected cells; host or cells: HEK293T; key to Bax binding: +: ability to bind Bax was determined by co-immunoprecipitation assay; −: lacked Bax-binding activity; conditions: for co-immunoprecipitation with tagged Bax: 293T/HEK293T cells, anti-GFP immunoprecipitation
From the text: Humanin (HN) cDNA was sub-cloned into a Green Fluorescence Protein (GFP) expression vector GFP-Cl at the Xhol/Hind III sites, producing a GFP-HN fusion polypeptide. GFP and GFP-HN were transfected into 293T cells with pcDNA3-HA-Bax. Cell lysates from these cells were immunoprecipitated with anti-GFP antibody and subsequently blotted with anti-HA antibody. The lysates were also blotted with ani-GFP antibody to confirm polypeptide expression. […] The data shown were obtained using the cytosolic form of Humanin; however, both cytosolic and mitochondrial forms of Humanin were tested and the results were the same.
Co-immunoprecipitation assays were performed using Humanin polypeptides expressed as fusion polypeptides with the Green Fluorescent Protein (GFP) in human cells. Wild-type Humanin fused to GFP is referred to as GFP-HN and a mutant form of Humanin, where the cysteine at position 8 is replaced with proline, fused to GFP is referred to as GFP-C8P. […] Immunoblot analysis of lysates of the transfected cells confirmed production of all proteins. In addition, GFP-HN also coimmunoprecipitated endogenous Bax from cell lines, which contain relatively high levels of the Bax protein.
Immunoblotting and immunoprecipitations were performed as follows. Immunoblotting was performed as described previously (Fields and Song, Nature 340:245-246 (1989)). For co-immunoprecipitations, cells were cultured in 50 uM […] Valine Alanine Asparate fluoromethyl-ketone (zVAD-fmk) to prevent apoptosis. Cells were suspended in lysis buffer (50 mM Tris-HCl, pH7.4; 150 mM NaCl; 20 mM EDTA; 50 mM NaF; 0.5% NP-40; 0.1 mM Na3VO4; 20 ug/ml Leupeptin; 20 ug/ml Aprotinin; 1 mM DTT; and 1 mM PMSF). Lysates (200 ul diluted in 1 ml final volume of lysis buffer) were cleared by incubation with 15 ul of protein G-Sepharose 4B (Zymed) and then incubated with 15 ul of polyclonal antibody and 15 ul of protein G at 4° C. overnight. Beads were then washed 4 times with 1.5 mls lysis buffer before boiling in Laemmli sample buffer and performing SDS-PAGE/immunoblotting.
In order to explore whether a correlation exists between Humanin binding to Bax and Humanin-mediated suppression of apoptosis, Bax was co-expressed with various GFP-fusion polypeptides encoding wild-type, full-length Humanin or various truncation and site-specific mutants of Humanin (Table 1). Expression of all GFP-fusion polypeptides was confirmed by immunoblotting, and ability to bind Bax was determined by co-immunoprecipitation assay. Each Humanin mutant was scored for ability to suppress apoptosis induced by Bax over-expression by >50% using a 3:1 ratio of HN:Bax plasmid DNA. […] Based on these studies, an active region of the 24 amino-acid Humanin peptide, mapped to residues 7-17.

[2] = target: T1, Bax; experiment: Bax-induced apoptosis in transfected neuronal cells (DAPI staining); format: cell-based; set-up: expressed in transfected cells
Procedure: (A) HEK293T cells were transfected with pcDNA3-HA-Bax together with plasmids encoding GFP, GFP-HN(N), or GFP-HN(M). Cell lysates were immunoprecipitated with polyclonal anti-GFP antibody. Immunoprecipitates (IP) or cell lysates were analyzed by immunoblotting using anti-HA or anti-GFP antibodies, respectively. (B) CSM14.1 neuronal cells were co-transfected with pcDNA3-HA-Bax together with plasmids encoding GFP, GFP-HN(N), or GFP-HN(M). Percent apoptosis was determined 48 h later by DAPI staining (mean±SD; n=3).
Rat neuronal cell line CSM14.1 cells were transfected with various plasmids using the Lipofectamine reagent (Invitrogen). For transfection, 10×10^5 cells were plated per well using 6 well plates. Each well received 1 μg DNA plus […] of Lipofectamine. After 24 hours of transfection, the percentage of cell death was determined using 4′-6-diamidino-2-phenylindole (DAPI) staining. […] The data shown were obtained using the cytosolic form of Humanin; however, both cytosolic and mitochondrial forms of Humanin were tested and the results were the same.
Apoptosis assays were performed as follows. Both floating and adherent cells (after trypsinization) were collected 48 hr after transfection, fixed, and stained using 4′,6-diamidine-2′-phenylindole dihydrochloride (DAPI) for assessing apoptosis based on nuclear fragmentation and chromatin condensation (Fields and Song, supra (1989)).
Since Humanin co-immunoprecipitates with Bax but not Bak, the effects of Humanin over-expression on apoptosis induced by these members of the Bcl-2 family was compared. […] Similar results were obtained regardless of whether Humanin was fused to the N- or C-terminus of GFP, with both of these GFP fusion polypeptides localizing to the cytosol of cells.

T1 sequence (Q07812 whole entry, species assumed, the tested form may be a part): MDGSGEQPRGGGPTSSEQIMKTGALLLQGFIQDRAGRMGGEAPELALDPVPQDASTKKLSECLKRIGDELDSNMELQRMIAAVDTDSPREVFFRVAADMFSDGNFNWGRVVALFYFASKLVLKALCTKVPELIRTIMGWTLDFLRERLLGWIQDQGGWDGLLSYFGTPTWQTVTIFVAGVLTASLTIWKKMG

Substance	co-immunoprecipitation with tagged Bax [1]	Bax-induced apoptosis ([2]; CSM14.1 cells, 24 hours after transfection, DAPI)	co-immunoprecipitation with tagged Bax ([1]; listed as GFP-HN(N))	Bax binding ([1]; GFP-fusion polypeptides, co-immunoprecipitation)	co-immunoprecipitation of endogenous Bax ([1]; cell lines with relatively high levels of Bax)	suppression of Bax-induced apoptosis, nuclear vs mitochondria-encoded form ([2]; CSM14.1 cells, 48 h, DAPI)	suppression of apoptosis induced by Bax ([2]; CSM14.1 or PC-3 cells, transient co-transfection)
Humanin: 24 amino acid polypeptide, cytosolic form of human Humanin (SEQ ID NO:2); used as synthetic peptide or expressed fusion	co-immunoprecipitate	decreased	–	–	–	–	–
GFP-HN: Wild-type full-length Humanin fused to Green Fluorescent Protein	co-immunoprecipitated	–	comparable amounts	+	coimmunoprecipitated	suppressed to comparable extents	about half
